Consider three molecules from patent US20090155164A1 (Amgen, published 2009).

The target of assay [1] is T1, monomeric human c-fms (residues 1-512)-pHis (human, UniProt P07333 20-512).
T1 construct: Construct stated as residues 1-512; signal stated as amino acids 1-19 and left out; also called human c-fms (1-512).pHIS; monomeric c-fms
Nature of the assay: Biacore, monomeric c-fms. How it is done:
The binding affinities of the somatic mutation corrected antibodies to monomeric c-fms protein were measured by surface plasmon resonance using a Biacore 3000 instrument.
The affinity of human c-fms (1-512). pHIS (Amgen) for the anti-c-fms mAbs was measured by Biacore. Experiments were conducted at 25° C. using a Biacore 3000 instrument (Biacore AB) equipped with a CM4 sensor chip. Sensor chips, amine coupling reagents (EDC (1-ethyl-3(3-dimethylaminopropyl)-carbodiimide hydrochloride), NHS (N-hydroxysuccinimide), and ethanolamine-HCl, pH 8.5), 10 mM sodium acetate, pH 5.5, HBS-EP (0.01 M HEPES pH 7.4, 0.15 M NaCl, 3 mM EDTA, 0.005% v/v Surfactant P20), and 10 mM glycine-HCl, pH 1.5 were purchased from Biacore AB. Bovine serum albumin (BSA, Bovuminar Standard Powder) was purchased from Serological Corporation. AffiniPure Goat Anti-Human IgG, Fcγ Fragment Specific was purchased from Jackson ImmunoResearch Laboratories.
(§1) Other anti-c-fms antibodies were tested in a similar manner, but changes were made to the protocol to account for differences in binding characteristics.

In assay [2] the target is T1, monomeric human c-fms (residues …). The experiment in a line: Biacore 3000, 25 C; mAb captured on goat anti-human IgG Fc, monomeric c-fms(1-512)-pHis analyte, 1:1 fit. On the procedure:
(§2) Anti-c-fms 1.2 or 1.2 SM at 0.25 μg/ml was injected over goat anti-human IgG, Fcγ in one flow cell for 2 minutes at 10 μl/min to obtain a surface density of ˜47 RUs. Another flow cell with goat anti-human IgG, Fcγ alone was used as a reference surface. Each assay started with ten cycles of buffer as the analyte to stabilize the signal. […] Each complex was allowed to associate for 2 minutes, and dissociate for 5 minutes. The surfaces were regenerated after each c-fms or buffer injection with a 30-second pulse of 10 mM glycine HCl, pH 1.5 at 100 μl/min, followed by a 30-second injection of buffer.
as §1
(§3) Data was double referenced by subtracting the reference surface responses to remove bulk refractive index changes, and then subtracting the averaged buffer blank response to remove systematic artifacts from the experimental flow cells.
In general terms: In SPR one partner is held on a chip, and binding of the other changes the refractive index at the surface.

For assay [3], the target named is T2, human c-fms, full length, on cells (human, UniProt P07333 20-972).
T2 construct: whole, on cells; also called CSF-1R
The experiment in a line: inhibition of 125I-hCSF-1 binding to AML-5 cells, 4 C; competitor: 125I-hCSF-1. On the procedure: (§4) A saturation radioligand binding experiment was performed in conjunction with each inhibition assay in order to determine both a KD and […] for hCSF-1 binding to c-fms expressed on the surface of AML-5 cells. Mixtures were set up in 96-well round-bottom microtiter plates with total volumes of 150 μl/well. All reagents were diluted in binding media containing 0.2% sodium azide and experiments were conducted at 4° C. to minimize potential receptor internalization and shedding.
For the saturation binding assay, ¹²⁵I-hCSF-1 was serially diluted 2-fold, starting at a concentration of ˜1.7 nM and going out 12 wells to a concentration of ˜1.5 pM. Nonspecific binding was measured at a single concentration of ¹²⁵I-hCSF-1 (˜80 pM, in triplicate) in the presence of a 1,000-fold molar excess of unlabeled hCSF-1, and assumed to be a linear function of the concentration of radiolabeled hCSF-1 present.

Assay [4] deals with T3, avidin-c-fms Ig-like 1 domain fusion protein (chicken; human, UniProt P07333 20-126).
T3 construct: Joined through an XhoI site; Captured on biotin beads; also called Ig1 construct; Ig-like loop 1 (IPVI-ALLP); not shown: chicken avidin, N-terminal fusion partner from pCEP4-Avidin(N)
The experiment in a line: FACS, biotin beads coated with the avidin fusion protein, FITC-1.2 without competitor. In general terms: Flow cytometry measures light scatter and fluorescence of single cells or particles in a stream.

The target of assay [5] is T2, human c-fms, full length, on cells. Nature of the assay: cell-based or functional assay.
The target of assay [6] is T4, avidin-c-fms Ig-like 2 domain only fusion protein (chicken; human, UniProt P07333 85-223).
T4 construct: Captured on biotin beads; also called Ig-like loop 2 alone (TEPG-AQIV); not shown: chicken avidin, N-terminal fusion partner from pCEP4-Avidin(N)
The experiment in a line: FACS, biotin beads loaded with the avidin fusion protein; per the sheet's title 1 µg/mL anti C-FMS and 1 µg/mL mouse anti-human IgG Fc-gamma FITC secondary.

Assay [7] addresses T2, human c-fms, full length, on cells. Nature of the assay: cell-based or functional assay. This is another data set of the same source.
For assay [8], the target named is T5, cynomolgus monkey c-fms on primary bone marrow cells (cynomolgus monkey). Nature of the assay: cell-based or functional assay.
In assay [9] the target is T2, human c-fms, full length, on cells. Nature of the assay: inhibition of 125I-CSF-1 binding to AML-5 cells; competitor: 125I-CSF-1 (summary table). On the procedure:
as §4
Both assays were incubated at 4° C. on a miniorbital shaker for 4 hours, the length of time needed to reach equilibrium as determined in time course experiments. Two 60 μl aliquots of each incubation mixture were transferred to chilled 400 μl polyethylene centrifuge tubes containing 200 μl phthalate oil and spun for 1.5 minutes in a 4° C. tabletop microfuge (Sorvall,) at 9615×g to separate cell associated ¹²⁵I-hCSF-1 from free ¹²⁵I-hCSF-1. The oil tubes were cut, and each cell pellet and supernatant collected in individual 12×75 mm glass tubes and loaded on a COBRA gamma counter (Packard Instrument Company) for cpm measurements. Cpm from duplicate aliquots taken from each well were averaged for analysis.
Mean K₁ values from 2 experiments were reported (see, TABLE 13).

Assay [10] has the same target. The experiment in a line: cell-based or functional assay. The source holds these as a separate data set.
In assay [11] the target is T5, cynomolgus monkey c-fms on primary bone …. Nature of the assay: cell-based or functional assay. This is another data set of the same source.
The target of assay [12] is T1, monomeric human c-fms (residues …). The experiment in a line: Biacore (summary table). On the procedure:
as §2, §1, §3

Assay [13] has as its target T3, avidin-c-fms Ig-like 1 domain fusion …. Nature of the assay: FACS, biotin beads coated with the avidin fusion protein, FITC-2.36 without competitor.
Assay [14] shares this target. The experiment in a line: FACS, biotin beads coated with the avidin fusion protein, FITC-1.109 without competitor.

T1 sequence (P07333 20-512): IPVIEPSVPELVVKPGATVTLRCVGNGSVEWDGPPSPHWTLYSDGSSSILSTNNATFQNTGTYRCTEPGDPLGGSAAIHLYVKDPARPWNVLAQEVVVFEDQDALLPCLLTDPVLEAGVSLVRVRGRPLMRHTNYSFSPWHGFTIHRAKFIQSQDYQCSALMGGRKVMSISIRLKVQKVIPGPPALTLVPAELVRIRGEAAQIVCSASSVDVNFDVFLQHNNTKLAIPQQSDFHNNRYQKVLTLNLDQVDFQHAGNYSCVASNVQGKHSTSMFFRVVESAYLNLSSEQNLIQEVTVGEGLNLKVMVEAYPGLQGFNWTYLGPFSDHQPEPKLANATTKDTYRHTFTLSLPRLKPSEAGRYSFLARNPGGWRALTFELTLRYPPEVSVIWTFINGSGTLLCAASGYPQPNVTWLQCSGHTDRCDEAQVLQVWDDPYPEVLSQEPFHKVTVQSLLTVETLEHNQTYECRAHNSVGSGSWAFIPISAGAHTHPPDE
T3 sequence (P07333 20-126 limits assumed): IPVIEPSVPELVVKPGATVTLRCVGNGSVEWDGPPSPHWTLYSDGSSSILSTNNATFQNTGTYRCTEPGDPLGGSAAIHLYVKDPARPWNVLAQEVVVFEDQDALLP
T4 sequence (P07333 85-223 limits assumed): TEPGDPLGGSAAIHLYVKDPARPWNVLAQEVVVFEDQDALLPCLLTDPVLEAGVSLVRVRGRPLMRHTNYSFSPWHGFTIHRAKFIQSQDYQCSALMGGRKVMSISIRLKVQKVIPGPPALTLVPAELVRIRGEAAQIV
T2 sequence (P07333 20-972): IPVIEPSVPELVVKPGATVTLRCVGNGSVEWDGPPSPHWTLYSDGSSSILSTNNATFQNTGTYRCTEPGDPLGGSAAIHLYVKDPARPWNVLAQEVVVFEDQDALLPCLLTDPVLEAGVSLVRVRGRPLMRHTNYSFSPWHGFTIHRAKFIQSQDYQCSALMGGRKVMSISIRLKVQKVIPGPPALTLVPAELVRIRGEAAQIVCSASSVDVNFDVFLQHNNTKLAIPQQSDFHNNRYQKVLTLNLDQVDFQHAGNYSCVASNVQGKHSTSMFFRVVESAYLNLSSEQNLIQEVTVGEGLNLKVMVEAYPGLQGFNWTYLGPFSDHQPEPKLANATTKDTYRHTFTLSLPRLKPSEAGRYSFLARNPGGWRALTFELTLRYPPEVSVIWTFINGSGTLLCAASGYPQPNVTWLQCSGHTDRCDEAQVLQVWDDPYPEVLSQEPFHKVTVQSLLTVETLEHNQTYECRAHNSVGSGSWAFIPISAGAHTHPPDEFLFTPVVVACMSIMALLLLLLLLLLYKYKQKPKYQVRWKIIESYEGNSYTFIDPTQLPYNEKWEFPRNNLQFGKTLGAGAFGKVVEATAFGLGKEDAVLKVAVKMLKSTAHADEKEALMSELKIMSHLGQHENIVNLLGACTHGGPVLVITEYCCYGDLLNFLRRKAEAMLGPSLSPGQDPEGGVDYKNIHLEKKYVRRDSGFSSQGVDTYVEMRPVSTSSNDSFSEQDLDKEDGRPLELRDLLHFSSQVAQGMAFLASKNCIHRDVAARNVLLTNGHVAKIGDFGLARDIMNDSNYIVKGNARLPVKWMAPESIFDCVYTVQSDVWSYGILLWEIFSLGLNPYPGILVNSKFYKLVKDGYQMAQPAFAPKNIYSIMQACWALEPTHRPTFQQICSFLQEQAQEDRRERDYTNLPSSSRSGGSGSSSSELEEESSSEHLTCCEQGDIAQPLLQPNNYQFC

B1: anti-c-fms IgG2 clone 1.2 (parent form, PT) (antibody, V domains shown)
VH: QVQLVQSGAEVKKPGASVKVSCKASGYTFTSYGISWVRQAPGQGLEWMGWISAYNGNTNYAQKLQGRVTMTTDTSTSTAYMELRSLRSDDTAVYYCARESWFGEVFFDYWGQGTLVTVSS
VL: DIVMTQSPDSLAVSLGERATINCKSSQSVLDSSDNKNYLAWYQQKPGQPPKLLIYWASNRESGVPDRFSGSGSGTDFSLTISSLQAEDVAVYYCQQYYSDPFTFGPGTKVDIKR
modifications: N-terminal glutamine cyclized to pyroglutamic acid; C-terminal lysine absent
notes: Recombinant human IgG2 kappa from COS/PKB cells (hybridoma was IgG1); also called 1.2.1; Clone 1.2 PT
For orientation: Kd means the constant that tells how readily two partners part at equilibrium. As usually defined, the koff is the rate constant with which the complex falls apart. In general, kon refers to the second-order rate constant of association. As a reminder, the Ki is a measure of affinity in units of concentration, obtained from inhibition or displacement. On to B1, for which the Kd in assay [1], in [2] and in assay [12] was 0.516 nM throughout. This molecule had a dissociation rate constant (koff) in [2] of 0.00198 s⁻¹. In assay [2], this molecule displayed a kon of 3.84e+06 M⁻¹ s⁻¹. Moreover, the inhibition constant (Ki) in assay [3] and in [9] was 0.0085 nM in each case. In addition, the binding result is on record as “no binding (tested: 1 µg/ml)” in assay [4] and “no binding (tested: 1 µg/mL)” in assay [6]. For the same molecule, the “antibody concentration that prevented CSF-1-induced pTyr/c-fms, 293T/c-fms cells” value in [5] was at least 0.1 µg/ml. Also, the “antibody concentration that reduced CSF-1-induced pTyr/c-fms to background, 293T/c-fms cells” value in [5] stood at 0.1 µg/ml. In addition, the “AML-5 proliferation IC50” value in assay [7] was found to be 0.027 nM. In addition, in [8], the “Cynomolgus Bone Marrow Proliferation IC50” value came out at 0.078 nM. Also, the “AML-5 bioassay IC50” value in assay [10] was determined as 0.027 nM. Besides, the “Cynomolgus bone marrow bioassay IC50” value in assay [11] was 0.078 nM.

B2: anti-c-fms IgG2 clone 2.360 (parent form, PT) (antibody, V domains shown)
VH: QVQLVQSGAEVKKPGASVKVSCKVSGYTLTELSMHWVRQAPGKGLEWMGGFDPEDGETIYAQKFQGRVTMTEDTSTDTVYMELSSLRSEDTAVYYCATGVMITFGGVIVGHSYYGMDVWGQGTTVTVSS
VL: DIQMTQSPSSLSASVGDRVTITCRASQGINNYLAWYQQKPGKVPQLLIYVASTLQSGVPSRFSGSGSGTDFTLTISSLQPEDVATYYCQKYNSGPFTFGPGTKVDIKR
modifications: N-terminal glutamine cyclized to pyroglutamic acid; C-terminal lysine absent
notes: Recombinant human IgG2 kappa from COS/PKB cells
As for B2, the equilibrium dissociation constant (Kd) in assay [1], in assay [2] and in [12] was 0.535 nM each time. This molecule returned a koff in [2] of 0.000667 s⁻¹. This molecule also registered a kon in assay [2] of 1.25e+06 M⁻¹ s⁻¹. In addition, the Ki in [3] and in [9] was about 0.16 nM each time. Moreover, the binding result in assay [13] is recorded as “no binding (tested: 1 µg/ml)”; in assay [6] it was “no binding (tested: 1 µg/mL)”. The “antibody concentration that reduced CSF-1-induced pTyr/c-fms to background, 293T/c-fms cells” value in [5] was found to be 1 µg/ml. Besides, the “AML-5 proliferation IC50” value in assay [7] was determined as 0.06 nM. Besides, in assay [8], the “Cynomolgus Bone Marrow Proliferation IC50” value worked out at 0.067 nM. The “AML-5 bioassay IC50” value in assay [10] turned out to be 0.06 nM. Besides, in assay [11], the “Cynomolgus bone marrow bioassay IC50” value turned out to be 0.067 nM.

B3: anti-c-fms IgG2 clone 1.109 (parent form, PT) (antibody, V domains shown)
VH: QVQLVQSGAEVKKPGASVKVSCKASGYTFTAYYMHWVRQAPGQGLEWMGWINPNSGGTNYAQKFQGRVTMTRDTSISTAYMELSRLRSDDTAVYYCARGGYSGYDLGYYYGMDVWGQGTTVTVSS
VL: DIQMTQSPSSLSASVGDRVTITCQASQNISNFLDWYQQKPGKAPNLLIYDASDLDPGVPSRFSGSGSGTDFTFTISSLQPEDIATYYCQQYVSLPLTFGGGTKVEIKR
modifications: N-linked glycosylation site at Asn-28 in CDR1, reported as likely occupied; N-terminal glutamine cyclized to pyroglutamic acid; C-terminal lysine absent
notes: Recombinant human IgG2 kappa from COS/PKB cells (hybridoma was IgG1)
Regarding B3, the dissociation constant (Kd) in [1], in assay [2] and in assay [12] was 0.051 nM each time. Moreover, the dissociation rate constant (koff) in [2] was found to be 0.000129 s⁻¹. Also, the on-rate constant (kon) in assay [2] was 2.54e+06 M⁻¹ s⁻¹. In addition, the binding result in assay [14] is recorded as “no binding (tested: 1 µg/ml)”; in [6], “no binding (tested: 1 µg/mL)”. For the same molecule, the Ki in assay [3] and in assay [9] was 0.0135 nM each time. For the same molecule, the “antibody concentration that prevented CSF-1-induced pTyr/c-fms, 293T/c-fms cells” value in [5] was at least 0.1 µg/ml. For the same molecule, in [5], the “antibody concentration that reduced CSF-1-induced pTyr/c-fms to background, 293T/c-fms cells” value amounted to 0.1 µg/ml. In addition, in assay [7], the “AML-5 proliferation IC50” value was 0.027 nM. In addition, the “Cynomolgus Bone Marrow Proliferation IC50” value in assay [8] was 0.016 nM. For the same molecule, the “AML-5 bioassay IC50” value in assay [10] worked out at 0.027 nM. Further, the “Cynomolgus bone marrow bioassay IC50” value in assay [11] turned out to be 0.016 nM.
